Data on 39 molecules can be found in patent US20260242478A1 (published 2026).

Where no end group is shown, it is not given here.

Assay [1] deals with T1, Anti-PSMA Fab (SEQ ID NOs: 19, 20).
T1 construct: Biotinylated and captured on neutravidin coated plates in the phage ELISA; also called 006 PSMA Fab
Description: phage ELISA; PSMA Fab on plate pre-incubated with PSMA antigen as competitor, anti-M13-HRP detection.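 Also: clonal phage from crude supernatants added without washing to wells preblocked with or without PSMA antigen, washed, bound phage read out by ELISA with HRP-linked anti-M13 antibody.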 On the technique in general: ELISA stands for enzyme-linked immunosorbent assay.
Description: (§1) Clonal phage were harvested as crude supernatants and screened via standard ELISAs. […] Prior to the addition of clonal phage. wells were incubated with blocking buffer and PSMA antigen or blocking buffer alone. Without washing or aspirating, clonal phage supernatants were then added to the wells and incubated for a short time. Wells were then washed followed by detection of bound phage using a horse radish conjugated anti-M13 antibody.

Assay [2] shares this target. Description: phage ELISA; biotinylated PSMA Fab on neutravidin plate, bound phage detected with anti-M13-HRP.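 Also: crude clonal phage supernatants added, without a wash, to wells pretreated with PSMA antigen in blocking buffer or with blocking buffer only, then briefly incubated.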
Description: as §1
The target of assay [3] is T2, PSMA Fab (006 PSMA Fab).
T2 construct: also called Anti-PSMA Fab; anti-PSMA Fab
Description: clonal phage ELISA; biotinylated PSMA Fab on neutravidin plate pre-incubated with competitor PSMA antigen; anti-M13-HRP detection.
Description: as §1

The target in assay [4] is T2, PSMA Fab (006 PSMA Fab). Put plainly: clonal phage ELISA; biotinylated PSMA Fab on neutravidin plate, blocking buffer alone; anti-M13-HRP detection.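 Also: clonal phage applied as crude supernatants to wells preincubated with blocking buffer, binding read by ELISA.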
Description: as §1
Assay [5] has as its target T3, Anti-PSMA Fab (SEQ ID NOs: 19, 20).
T3 construct: Biotinylated and captured on neutravidin coated plates in the phage ELISA; also called 006 PSMA Fab
Description: phage binding ELISA on plate-captured PSMA Fab, wells pre-incubated with PSMA antigen as competitor.
Description: as §1

For assay [6] the target is unchanged. Description: phage binding ELISA, clonal phage on plate-captured biotinylated PSMA Fab.
Description: as §1

B1: Phage-2221 (peptide)
peptide: GHQWCIPQWMCVGL
notes: Tested as clonal phage supernatant, with the peptide fused to pIII of the bacteriophage
B1: the “Phage binding ELISA, Anti-PSMA Fab signal in the presence of PSMA” value (“Phage binding ELISA … in the presence of PSMA” below) in assay [1] worked out at 0.0809. In addition, the “Phage binding ELISA, Anti-PSMA Fab signal” value in assay [2] came out at 1.58.
In the case of LDKWCIPPWMCETV [Phage-2321], the “Phage binding ELISA signal, Anti-PSMA Fab in presence of PSMA antigen” value (from here on “Phage binding ELISA signal … of PSMA antigen”) with PSMA Fab (006 PSMA Fab) [3] came to 0.0597. In addition, the “Phage binding ELISA signal, Anti-PSMA Fab” value with PSMA Fab (006 PSMA Fab) [4] turned out to be 1.45.
In the case of VSNWCIPRGLCTQM [Phage-2320], the “Phage binding ELISA signal … of PSMA antigen” value with PSMA Fab (006 PSMA Fab) [3] came out at 0.0665. Also, the “Phage binding ELISA signal, Anti-PSMA Fab” value in the assay with PSMA Fab (006 PSMA Fab) [4] was 1.45.
Regarding AIKWCTPPWMCDWH [Phage-2224], the “Anti-PSMA Fab signal in the presence of PSMA” value in assay [5] is 0.131. The “Anti-PSMA Fab (SEQ ID NOs: 19, 20) signal” value in assay [6] turned out to be 1.58.
Turning to PRKWCIPAWMCEII [Phage-2236], the “Anti-PSMA Fab signal in the presence of PSMA” value in assay [5] was determined as 0.0733. Also, in assay [6], the “Anti-PSMA Fab (SEQ ID NOs: 19, 20) signal” value amounted to 1.56.
With LEKWCTPVWMCEGV [Phage-2318], the “Phage binding ELISA signal … of PSMA antigen” value in the assay with PSMA Fab (006 PSMA Fab) [3] worked out at 0.0702. Besides, the “Phage binding ELISA signal, Anti-PSMA Fab” value with PSMA Fab (006 PSMA Fab) [4] came to 1.46.
The matching figures for LEKWCIPTWMCEMT [Phage-2322]: 0.0679 and 1.45.

B2: Phage-2215 (peptide)
peptide: GVKWCTPPWMCEVA
notes: as for B1
B2: the “Phage binding ELISA … in the presence of PSMA” value in assay [1] was found to be 0.0672. Besides, the “Phage binding ELISA, Anti-PSMA Fab signal” value in assay [2] worked out at 1.59.
Take LLKWCTPPWMCELH [Phage-2229]: in assay [5], the “Anti-PSMA Fab signal in the presence of PSMA” value was 0.0932. For the same molecule, in assay [6], the “Anti-PSMA Fab (SEQ ID NOs: 19, 20) signal” value is 1.57.
As for LVKWCIPQWMCEQA [Phage-2228], in assay [5], the “Anti-PSMA Fab signal in the presence of PSMA” value was 0.0712. Further, in assay [6], the “Anti-PSMA Fab (SEQ ID NOs: 19, 20) signal” value was 1.57.
In the same order, the values of VSAWCIPPWMCGTN [Phage-2237] are 0.0801 and 1.56.

B3: Phage-2315 (peptide)
peptide: EARWCTPPWMCAYM
modifications: cysteine pairing not given here; also: displayed on bacteriophage by fusion to pIII
For B3, in the assay with PSMA Fab (006 PSMA Fab) [3], the “Phage binding ELISA signal … of PSMA antigen” value worked out at 0.0724. The “Phage binding ELISA signal, Anti-PSMA Fab” value with PSMA Fab (006 PSMA Fab) [4] amounted to 1.47.

B4: Phage-2213 (peptide)
peptide: VIPLCSPPWMCFMS
notes: as for B1
On to B4, for which the “Phage binding ELISA … in the presence of PSMA” value in assay [1] was determined as 0.0631. The “Phage binding ELISA, Anti-PSMA Fab signal” value in assay [2] came to 1.6.

B5: Phage-2216 (peptide)
peptide: WAQWCTPSWMCEGF
notes: as for B1
Consider B5, for which the “Phage binding ELISA … in the presence of PSMA” value in assay [1] was determined as 0.0929. Besides, the “Phage binding ELISA, Anti-PSMA Fab signal” value in assay [2] worked out at 1.59.
Turning to MPNWCTPTWMCQGF [Phage-2234], in assay [5], the “Anti-PSMA Fab signal in the presence of PSMA” value stood at 0.0682. For the same molecule, in assay [6], the “Anti-PSMA Fab (SEQ ID NOs: 19, 20) signal” value was 1.57.
The matching figures for QLNWCRPAWMCEGF [Phage-2232]: 0.128 and 1.57.

B6: Phage-2313 (peptide)
peptide: LEKWCMPPWMCSGT
modifications: cysteine pairing not given here; also: displayed on bacteriophage by fusion to pIII
For the molecule B6, in the assay with PSMA Fab (006 PSMA Fab) [3], the “Phage binding ELISA signal … of PSMA antigen” value came out at 0.0701. Besides, in the assay with PSMA Fab (006 PSMA Fab) [4], the “Phage binding ELISA signal, Anti-PSMA Fab” value came out at 1.47.
Regarding TDMWCIPPWMCERI [Phage-2230], the “Anti-PSMA Fab signal in the presence of PSMA” value in assay [5] turned out to be 0.0846. Moreover, the “Anti-PSMA Fab (SEQ ID NOs: 19, 20) signal” value in assay [6] was 1.57.

B7: Phage-2231 (peptide)
peptide: LSKWCIPEWMCAVM
modifications: cysteine pairing not given here; also: pIII fusion on bacteriophage (not given here)
On to B7, for which the “Anti-PSMA Fab signal in the presence of PSMA” value in assay [5] turned out to be 0.0848. Also, the “Anti-PSMA Fab (SEQ ID NOs: 19, 20) signal” value in assay [6] amounted to 1.57.

B8: Phage-2220 (peptide)
peptide: EPKWCTPEWMCLNL
notes: as for B1
For the molecule B8, the “Phage binding ELISA … in the presence of PSMA” value in assay [1] is 0.0915. For the same molecule, the “Phage binding ELISA, Anti-PSMA Fab signal” value in assay [2] turned out to be 1.58.

B9: Phage-2218 (peptide)
peptide: VPKQCVPEWMCSGF
notes: as for B1
Regarding B9, the “Phage binding ELISA … in the presence of PSMA” value in assay [1] is 0.0779. In addition, the “Phage binding ELISA, Anti-PSMA Fab signal” value in assay [2] came to 1.59.
Take MEQWCIPQWMCSGF [Phage-2317]: the “Phage binding ELISA signal … of PSMA antigen” value with PSMA Fab (006 PSMA Fab) [3] is 0.0911. Also, the “Phage binding ELISA signal, Anti-PSMA Fab” value in the assay with PSMA Fab (006 PSMA Fab) [4] turned out to be 1.46.
As for GMLACTPAWMCEGF [Phage-2316], the “Phage binding ELISA signal … of PSMA antigen” value in the assay with PSMA Fab (006 PSMA Fab) [3] was found to be 0.0923. In addition, the “Phage binding ELISA signal, Anti-PSMA Fab” value with PSMA Fab (006 PSMA Fab) [4] amounted to 1.47.
On to SELWCIPPWMCNFL [Phage-2227], for which the “Anti-PSMA Fab signal in the presence of PSMA” value in assay [5] worked out at 0.0684. In addition, the “Anti-PSMA Fab (SEQ ID NOs: 19, 20) signal” value in assay [6] amounted to 1.57.
For the molecule VEKLCIPHWMCEAS [Phage-2325], in the assay with PSMA Fab (006 PSMA Fab) [3], the “Phage binding ELISA signal … of PSMA antigen” value was determined as 0.0647. Moreover, the “Phage binding ELISA signal, Anti-PSMA Fab” value with PSMA Fab (006 PSMA Fab) [4] amounted to 1.45.
With WDHWCTPAWMCFNA [Phage-2323], the “Phage binding ELISA signal … of PSMA antigen” value with PSMA Fab (006 PSMA Fab) [3] is 0.119. Also, the “Phage binding ELISA signal, Anti-PSMA Fab” value with PSMA Fab (006 PSMA Fab) [4] amounted to 1.45.
In the case of FVNWCIPTWMCPEI [Phage-2314], the “Phage binding ELISA signal … of PSMA antigen” value in the assay with PSMA Fab (006 PSMA Fab) [3] worked out at 0.233. The “Phage binding ELISA signal, Anti-PSMA Fab” value with PSMA Fab (006 PSMA Fab) [4] came out at 1.47.

B10: Phage-2212 (peptide)
peptide: TEKWCIPSWMCEIS
notes: as for B1
Turning to B10, the “Phage binding ELISA … in the presence of PSMA” value in assay [1] was 0.0837. Further, in assay [2], the “Phage binding ELISA, Anti-PSMA Fab signal” value turned out to be 1.6.
As to SDNWCKPKWMCETI [Phage-2319], the “Phage binding ELISA signal … of PSMA antigen” value in the assay with PSMA Fab (006 PSMA Fab) [3] was 0.116. In the assay with PSMA Fab (006 PSMA Fab) [4], the “Phage binding ELISA signal, Anti-PSMA Fab” value is 1.45.
As to LFKVCTPSWMCSGF [Phage-2225], the “Anti-PSMA Fab signal in the presence of PSMA” value in assay [5] was found to be 0.0813. Besides, the “Anti-PSMA Fab (SEQ ID NOs: 19, 20) signal” value in assay [6] came out at 1.58.
As to HSHWCIPPWMCTFV [Phage-2324], the “Phage binding ELISA signal … of PSMA antigen” value with PSMA Fab (006 PSMA Fab) [3] worked out at 0.162. Besides, in the assay with PSMA Fab (006 PSMA Fab) [4], the “Phage binding ELISA signal, Anti-PSMA Fab” value turned out to be 1.45.

B11: Phage-2217 (peptide)
peptide: EVKWCIPSWMCESE
notes: as for B1
Consider B11, for which the “Phage binding ELISA … in the presence of PSMA” value in assay [1] was 0.0904. In addition, in assay [2], the “Phage binding ELISA, Anti-PSMA Fab signal” value amounted to 1.59.

B12: Phage-2222 (peptide)
peptide: TEKWCIPQWMCEAT
modifications: cysteine pairing not given here; also: displayed on phage, fused to pIII
notes: Peptide-180 library clone, tested as clonal phage (peptide fused to the pIII filament of the bacteriophage)
Consider B12, for which, in assay [5], the “Anti-PSMA Fab signal in the presence of PSMA” value turned out to be 0.0783. In addition, the “Anti-PSMA Fab (SEQ ID NOs: 19, 20) signal” value in assay [6] was 1.58.
FNKWCVPAWMCSDM [Phage-2235]: the “Anti-PSMA Fab signal in the presence of PSMA” value in assay [5] was 0.0946. In addition, the “Anti-PSMA Fab (SEQ ID NOs: 19, 20) signal” value in assay [6] was 1.56.
For the molecule EIQWCTPSWMCPWL [Phage-2233], the “Anti-PSMA Fab signal in the presence of PSMA” value in assay [5] was found to be 0.0668. For the same molecule, in assay [6], the “Anti-PSMA Fab (SEQ ID NOs: 19, 20) signal” value was 1.57.
With LAYWCTPAWMCEGF [Phage-2226], the “Anti-PSMA Fab signal in the presence of PSMA” value in assay [5] stood at 0.112. In assay [6], the “Anti-PSMA Fab (SEQ ID NOs: 19, 20) signal” value came to 1.57.

B13: Phage-2219 (peptide)
peptide: SENWCIPAWMCSGF
notes: as for B1
With B13, the “Phage binding ELISA … in the presence of PSMA” value in assay [1] was determined as 0.111. For the same molecule, the “Phage binding ELISA, Anti-PSMA Fab signal” value in assay [2] came to 1.59.

B14: Phage-2214 (peptide)
peptide: PEKWCIPEWMCDAL
notes: Tested as clonal phage supernatant, with the peptide fused to pIII of the bacteriophage; Read from the row with '-' as the Peptide-180 residue: PEKWCIPEWMCDAL
For B14, the “Phage binding ELISA … in the presence of PSMA” value in assay [1] is 0.0578. Moreover, the “Phage binding ELISA, Anti-PSMA Fab signal” value in assay [2] turned out to be 1.6.
With FLKWCTPEWMCSDV [Phage-2223], the “Anti-PSMA Fab signal in the presence of PSMA” value in assay [5] was determined as 0.128. Besides, in assay [6], the “Anti-PSMA Fab (SEQ ID NOs: 19, 20) signal” value turned out to be 1.58.
